In the series the test system is His:paALKBH5-like (Gypsy_Pa_2799 ORF2) (Phalaenopsis aphrodite). Kind of series: EMSA. The conditions noted are these: EMSA: 10 mM Tris-HCl pH 8.0, 100 mM NaCl, 50% glycerol, 1 U RiboLock, 30 min at 4 C; Northwestern: 10 mM Tris-HCl pH 7.5, 1 mM EDTA, 0.1 M NaCl, 0.05% Triton …. For orientation: A gel shift assay detects complexes by their altered migration in electrophoresis.

On to AMV RNA 3 5'UTR transcript, for which the Kd came to 0.21 µM.

What is called Kd is the free concentration of one partner at which half of the binding sites on the other are occupied at equilibrium, for simple one-to-one binding.

The values above are taken from article PMC9289625.
